The target of the experiment is T1, Flag-tagged GAS41, purified (human, UniProt O95619 1-227).
T1 construct: GAS41, human, full-length cDNA amplified from A549 cDNA; also called purified GAS41 proteins
Kind of experiment: pull-down; GST or GST-NRF2 fragments on GST Bind Resin incubated with purified GAS41 in BC200 buffer for 4 h at 4 °C, washed six times with BC200; western blot. To be noted: both partners purified. (Immunoblotting shows a protein as a band on a membrane.)

T1 sequence (O95619 whole entry): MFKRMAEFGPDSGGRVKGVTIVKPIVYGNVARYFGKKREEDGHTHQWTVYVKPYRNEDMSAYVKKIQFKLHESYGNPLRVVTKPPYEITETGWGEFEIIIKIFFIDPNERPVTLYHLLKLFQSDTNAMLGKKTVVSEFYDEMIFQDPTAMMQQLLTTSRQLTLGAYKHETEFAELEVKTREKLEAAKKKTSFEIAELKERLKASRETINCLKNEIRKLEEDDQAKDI

B1: GST-NRF2-CT (Neh1 and Neh3 domains of NRF2, AA. 434-605) (domain or fragment, UniProt Q16236 434-605, looked up)
chain: PGHRKTPFTKDKHSSRLEAHLTRDELRAKALHIPFPVEKIINLPVVDFNEMMSKEQFNEAQLALIRDIRRRGKNKVAAQNCRKRKLENIVELEQDLDHLKDEKEKLLKEKGENDKSLHLLKKQLSTLYLEVFSMLRDEDGKPYSPSEYSLQQTRDGNVFLVPKSKKPDVKKN
notes: NRF2, Neh1 and Neh3 domains, amino acids 434-605; That the 434-605 fragment is the construct called GST-NRF2-CT in the methods is inferred
In the case of B1, the binding result was “binds”.

The values are drawn from PMC10957913, “GAS41 modulates ferroptosis by anchoring NRF2 on chromatin” (Nature Communications, 2024).
